Test results published in paper PMC8092228 (mBio, 2021).

Biological target: LOV construct of Brucella abortus LOV-HK with the Nα helix, the LOV core and half of the Jα helix (wild type) (Brucella abortus)
Experiment: SEC with static light scattering (SEC-SLS)

“LOV construct of Brucella abortus LOV-HK with the Nα helix, the LOV core and half of the Jα helix (wild type) (domain or fragment)” gave a stoichiometry N of 2.
